Data from article PMC6991139 (ACS nano, 2019).

Tests used:
[1] = biological target: PP7-ZZ particle (ZZ-domains fused to the C-terminus of the PP7 CP) (PP7 virus (Leviviridae)); experiment: SEC + other: dynamic light scattering + other: TEM
[2] = biological target: PP7-PP7 single-chain coat protein dimer particle (PP7 virus (Leviviridae)) (UniProt P03630); experiment: cryo-EM structure
[3] = biological target: ZZ-PP7 particle (ZZ-domains added to the N-terminus of the PP7 CP) (PP7 virus (Leviviridae)); experiment: cryo-EM structure
[4] = biological target: the molecule itself; experiment: SEC + other: dynamic light scattering + other: TEM

PP7-ZZ particle (ZZ-domains fused to the C-terminus of the PP7 CP)
stoichiometry N [1]: 180 per capsid

PP7-PP7 single-chain coat protein dimer particle (from UniProt P03630 1-128; P03630 1-128)
stoichiometry N [2]: 120 copies

ZZ-PP7 particle (ZZ-domains added to the N-terminus of the PP7 CP)
stoichiometry N [3]: 180 per capsid

B1: wild-type PP7 virus-like particle (PP7 coat protein) (natural protein)
chain: MSKTIVLSVGEATRTLTEIQSTADRQIFEEKVGPLVGRLRLTASLRQNGAKTAYRVNLKLDQADVVDCSTSVCGELPKVRYTQVWSHDVTIVANSTEASRKSLYDLTKSLVATSQVEDLVVNLVPLGR
binding result [4]: binds
